# Measured values published in patent publication US20180303898A1 (SANFORD BURNHAM PREBYS MEDICAL DISCOVERY INSTITUTE, published 2018).
# Bridges are numbered along the chain shown (N, C = ends). Where no end group is shown, it is not given here. FAM = 5(6)-carboxyfluorescein; Ahx = NCCCCCC(=O)O
# T1: b1b2 domain of neuropilin-1 (NRP-1), recombinant (UniProt O14786 273-586, limits assumed)
# T1 construct: domain: b1b2 domain; also called NRP-1 b1b2; b1b2 domain of NRP-1
# T1 sequence (looked up): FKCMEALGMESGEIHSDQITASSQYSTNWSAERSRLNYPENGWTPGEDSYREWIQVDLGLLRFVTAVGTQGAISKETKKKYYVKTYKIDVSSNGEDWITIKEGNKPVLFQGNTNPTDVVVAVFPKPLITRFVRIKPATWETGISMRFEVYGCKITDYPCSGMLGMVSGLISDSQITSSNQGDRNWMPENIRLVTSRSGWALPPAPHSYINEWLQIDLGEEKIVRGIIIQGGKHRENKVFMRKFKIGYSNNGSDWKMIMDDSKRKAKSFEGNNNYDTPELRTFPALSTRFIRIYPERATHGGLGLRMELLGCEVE
# T2: recombinant 6x-His-tagged p32 protein (p32/p33/gC1qR/HABP1) (UniProt Q07021 74-282)
# T2 construct: not shown: 6x-His tag
# T2 sequence (looked up): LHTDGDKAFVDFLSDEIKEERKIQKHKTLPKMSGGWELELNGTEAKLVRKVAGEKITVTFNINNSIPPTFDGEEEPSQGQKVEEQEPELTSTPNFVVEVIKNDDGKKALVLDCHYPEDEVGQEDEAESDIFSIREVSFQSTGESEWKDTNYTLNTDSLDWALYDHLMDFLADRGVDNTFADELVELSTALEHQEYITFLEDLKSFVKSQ
# B1: FAM-labeled TT1 peptide (CKRGARSTC) (peptide)
# peptide: {FAM-Ahx}-CKRGARSTC
# modifications: disulfide (positions not given here); not fully specified (bridges); also: cyclic peptide, ring type not given here
# notes: Synthetic fluorescent peptide used as the probe in the fluorescence polarization assays; also called FAM-TT1; FAM-TT-1
# B2: FAM-labeled LyP-1 peptide (CGNKRTRGC) (peptide)
# peptide: {FAM-Ahx}-CGNKRTRGC
# modifications: disulfide 1-9 (inferred)
# notes: also called FAM-LyP-1
# Columns and labels:
# [1] = target: T1, b1b2 domain of neuropilin-1 (NRP-1), …; assay: fluorescence polarization, recombinant b1b2 domain of NRP-1
# Procedure: FIG. 8 is a graph showing specificity of TT1 binding. Specificity of TT1 was further evaluated by measuring the binding of FAM-TT1 to recombinant non-target protein, b1b2 domain of neuropilin-1 (NRP-1). The binding was studied by fluorescence polarization. […] Each data point presents average±S.D., n=4-6.
# (§1) The assay was initially set up in 20 μl well volume in 384 well plate (Corning Life Sciences), and measurements were carried out using PheraStar FS plate reader (BMG LABTECH, Ortenberg, Germany) in quadruplicate. Peptide and protein stock solutions were diluted to desired concentration with assay buffer (50 mM BIS-TRIS pH 7.4, 0.05% Tween20, 1 mM DTT). FAM-labeled peptides were protected from light during the experiment to avoid photobleaching. Optimal concentration of fluorescein (FAM) labeled-peptides for the assay was determined by measuring the limit of detection (LOD), signal-to-background ratio (S/B), and stability of mP value over series of peptide concentrations. In the binding assay, the concentration of FAM-peptide was kept constant, and the FP was measured over the range of target protein concentrations. The peptide dissociation constant (KD) was obtained by fitting the binding curve into Michaelis-Menten kinetics in GraphPad Prism-software (GraphPad Software, Inc., CA, USA). […]
# [2] = target: T2, recombinant 6x-His-tagged p32 protein …; assay: fluorescence polarization, FAM-TT1 constant, p32 titrated, in BIS-TRIS buffer
# Procedure: FIG. 6 is a graph showing the effect of buffer solution on interaction of TT1 and p32. The binding affinity of FAM-labeled TT1 to p32 was studied in different assay buffers: in PBS, HEPES, and BIS-TRIS, respectively. The binding was measured by fluorescence polarization (FP) and observed as increased FP value. Binding constants (KD) were calculated by fitting the binding curves into Michaelis-Menten kinetics. Each data point presents average±S.D., n=4-6.
# as §1, with “concentrations.” for “concentrations. The peptide dissociation constant (KD) was obtained by fitting the binding curve into Michaelis-Menten kinetics in GraphPad Prism-software (GraphPad Software, Inc., CA, USA).”
# [3] = target: T2, recombinant 6x-His-tagged p32 protein …; assay: fluorescence polarization, FAM-labeled peptide constant, p32 titrated (FIG. 2A)
# Procedure: FIGS. 2A-2D are graphs showing FP- and phage binding-based validation of p32 binding peptides and hit compounds. […] Measurements were performed with PheraStar FS plate reader (BMG Labtech, Ortenberg, Germany) on 384-well plate. […] (C) Assessment of hit compound binding to a non-target secondary protein, NRP-1, to determine the specificity of the hit compounds in FP assay. A known NRP-1 binding peptide, RPARPAR (SEQ ID NO:18), was used as a control. (D) Effect of the hit compounds on the TT1 phage binding to p32 protein. TT1 phage binding to p32 in the presence of 100 μM hit compounds was determined in ELISA-type of binding assay. Each data point presents average±S.D., n=4.
# The assay was initially set up in 20 μl well volume in 384 well plate (Corning Life Sciences), and measurements were carried out using PheraStar FS plate reader (BMG LABTECH, Ortenberg, Germany) in quadruplicate. […] Optimal concentration of fluorescein (FAM) labeled-peptides for the assay was determined by measuring the limit of detection (LOD), signal-to-background ratio (S/B), and stability of mP value over series of peptide concentrations. In the binding assay, the concentration of FAM-peptide was kept constant, and the FP was measured over the range of target protein concentrations. […]
Binder,binding result [1],Kd [2] [nM],Kd [3] [µM]
B1,no binding,2300,–
B2,–,–,23
